Target: T1, ZBTB10 ZF1-2 R767Q (human, UniProt Q96DT7 713-779, R767Q)
T1 sequence: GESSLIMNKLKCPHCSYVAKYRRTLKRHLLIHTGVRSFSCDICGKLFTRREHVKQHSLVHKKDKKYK
Assay: X-ray crystallography; Zn2+; 1.9 A, P1; ITC at 20 C, ~30 uM dsDNA in cell, ~300 uM protein in syringe; proteins dialyzed in 20 mM Tris-HCl pH 7.5, 150 mM NaCl (ITC buffer not separately stated)
Conditions: protein: recombinant; tags: MBP removed by PreScission; 5' overhang 1 nt on each strand (T and A)

B1: TTAGGG crystal duplex (dsDNA)
DNA 1: TTAGGGTTATA
DNA 2: ATATAACCCTA
binding result: binds

Reference: publication PMC9958480, “Structural insights into the recognition of telomeric variant repeat TTGGGG by broad-complex, tramtrack and bric-à-brac - zinc finger protein ZBTB10”
